Data on five molecules can be found in paper PMC7954794, “Protein context shapes the specificity of SH3 domain-mediated interactions in vivo” (Nature Communications, 2021).

Assay type in all cases: cell-based, Saccharomyces cerevisiae
Assay [1] has as its system Hua2. Kind of assay: Deep mutational scanning of Abp1 SH3, Abp1-Hua2 DHFR-PCA (DMS score). The method, boiled down: (§1)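 Saturation mutagenesis (NNN per codon) of Abp1 SH3, reintegrated at the genomic locus in yeast and mated with Hua2- or Lsb3-DHFR F[3] prey strains. Diploids underwent two rounds of liquid DHFR-PCA selection (72 h each, 30 °C), in biological duplicate. Mutant abundance was tracked by Illumina sequencing against the pre-selection reference.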

Assay [2] concerns Lsb3. Kind of assay: Deep mutational scanning of Abp1 SH3, Abp1-Lsb3 DHFR-PCA (DMS score). Put shortly: as §1
The test system of assay [3] is Hua2 and Lsb3 (Abp1-Hua2 and Abp1-Lsb3 PPIs). Kind of assay: Deep mutational scanning of Abp1 SH3, quadrant classification from Hua2 and Lsb3 DMS scores. The conditions noted are these: class from DMS scores for Hua2 and Lsb3.
Assay [4] has as its system Hua2 and Lsb3. Kind of assay: Classification of Abp1 SH3 mutations by effect on Hua2 and Lsb3 DMS scores (quadrant). The conditions noted are these: class of mutation by Hua2 and Lsb3 DMS scores (Dest. both, Dest. Hua2, Dest. Lsb3, Neutral).

B1: ABP1 V54V (protein, UniProt P15891 2-592, looked up)
Actin-binding protein: ALEPIDYTTHSREIDAEYLKIVRGSDPDTTWLIISPNAKKEYEPESTGSSFHDFLQLFDETKVQYGLARVSPPGSDVEKIIIIGWCPDSAPLKTRASFAANFAAVANNLFKGYHVQVTARDEDDLDENELLMKISNAAGARYSIQTSSKQQGKASTPPVKKSFTPSKSPAPVSKKEPVKTPSPAPAAKISSRVNDNNDDDDWNEPELKERDFDQAPLKPNQSSYKPIGKIDLQKVIAEEKAKEDPRLVQKPTAAGSKIDPSSDIANLKNESKLKRDSEFNSFLGTTKPPSMTESSLKNDDDKVIKGFRNEKSPAQLWAERKAKQNSGNAETKAEAPKPEVPEDEPEGEPDVKDLKSKFEGLAASEKEEEEMENKFAPPPKKSEPTIISPKPFSKPQEPVKAEEAEQPKTDYKKIGNPLPGMHIEADNEEEPEENDDDWDDDEDEAAQPPLPSRNVASGAPVQKEEPEQEEIAPSLPSRNSIPAPKQEEAPEQAPEEEIEEEAEEAAPQLPSRSSAAPPPPPRRATPEKKPKENPWATAEYDYDAAEDNELTFVENDKIINIEFVDDDWWLGELEKDGSKGLFPSNYVSLGN
modifications: synonymous V54V
Regarding B1, in assay [1] (Abp1-Hua2 DHFR-PCA), the “hua2sc (frequencies scaled to the synonymous mutation distribution, DMS score)” value is given as -0.1199. The “HUA2_MTX2 (frequencies normalized to the reference condition)” value in assay [1] (Abp1-Hua2 DHFR-PCA, MTX2) was determined as 1.4929. Besides, the “lsb3sc (frequencies scaled to the synonymous mutation distribution, DMS score)” value in assay [2] (Abp1-Lsb3 DHFR-PCA) is reported as -0.8004. The “LSB3_MTX2 (frequencies normalized to the reference condition)” value in assay [2] (Abp1-Lsb3 DHFR-PCA, MTX2) stood at 0.6999. Also, the quadrant entry in assay [3] was “Neutral”.

B2: ABP1 N58N (protein, UniProt P15891 2-592, looked up)
Actin-binding protein: ALEPIDYTTHSREIDAEYLKIVRGSDPDTTWLIISPNAKKEYEPESTGSSFHDFLQLFDETKVQYGLARVSPPGSDVEKIIIIGWCPDSAPLKTRASFAANFAAVANNLFKGYHVQVTARDEDDLDENELLMKISNAAGARYSIQTSSKQQGKASTPPVKKSFTPSKSPAPVSKKEPVKTPSPAPAAKISSRVNDNNDDDDWNEPELKERDFDQAPLKPNQSSYKPIGKIDLQKVIAEEKAKEDPRLVQKPTAAGSKIDPSSDIANLKNESKLKRDSEFNSFLGTTKPPSMTESSLKNDDDKVIKGFRNEKSPAQLWAERKAKQNSGNAETKAEAPKPEVPEDEPEGEPDVKDLKSKFEGLAASEKEEEEMENKFAPPPKKSEPTIISPKPFSKPQEPVKAEEAEQPKTDYKKIGNPLPGMHIEADNEEEPEENDDDWDDDEDEAAQPPLPSRNVASGAPVQKEEPEQEEIAPSLPSRNSIPAPKQEEAPEQAPEEEIEEEAEEAAPQLPSRSSAAPPPPPRRATPEKKPKENPWATAEYDYDAAEDNELTFVENDKIINIEFVDDDWWLGELEKDGSKGLFPSNYVSLGN
modifications: synonymous codon change N58N
Take B2: in assay [1] (Abp1-Hua2 DHFR-PCA), the “hua2sc (frequencies scaled to the synonymous mutation distribution, DMS score)” value is -0.8159. Moreover, in assay [1] (Abp1-Hua2 DHFR-PCA, MTX2), the “HUA2_MTX2 (frequencies normalized to the reference condition)” value is on record as 0.7969. Moreover, the “lsb3sc (frequencies scaled to the synonymous mutation distribution, DMS score)” value in assay [2] (Abp1-Lsb3 DHFR-PCA) was -0.6649. Besides, in assay [2] (Abp1-Lsb3 DHFR-PCA, MTX2), the “LSB3_MTX2 (frequencies normalized to the reference condition)” value is given as 0.8354. In assay [3], the quadrant entry was “Neutral”.

B3: ABP1 Y7Y (protein, UniProt P15891 2-592, looked up)
Actin-binding protein: ALEPIDYTTHSREIDAEYLKIVRGSDPDTTWLIISPNAKKEYEPESTGSSFHDFLQLFDETKVQYGLARVSPPGSDVEKIIIIGWCPDSAPLKTRASFAANFAAVANNLFKGYHVQVTARDEDDLDENELLMKISNAAGARYSIQTSSKQQGKASTPPVKKSFTPSKSPAPVSKKEPVKTPSPAPAAKISSRVNDNNDDDDWNEPELKERDFDQAPLKPNQSSYKPIGKIDLQKVIAEEKAKEDPRLVQKPTAAGSKIDPSSDIANLKNESKLKRDSEFNSFLGTTKPPSMTESSLKNDDDKVIKGFRNEKSPAQLWAERKAKQNSGNAETKAEAPKPEVPEDEPEGEPDVKDLKSKFEGLAASEKEEEEMENKFAPPPKKSEPTIISPKPFSKPQEPVKAEEAEQPKTDYKKIGNPLPGMHIEADNEEEPEENDDDWDDDEDEAAQPPLPSRNVASGAPVQKEEPEQEEIAPSLPSRNSIPAPKQEEAPEQAPEEEIEEEAEEAAPQLPSRSSAAPPPPPRRATPEKKPKENPWATAEYDYDAAEDNELTFVENDKIINIEFVDDDWWLGELEKDGSKGLFPSNYVSLGN
modifications: synonymous codon change Y7Y in SH3
Regarding B3, the “hua2sc (DMS score)” value in assay [1] (Abp1-Hua2, frequencies scaled to the synonymous mutation distribution) was 0.2398. For the same molecule, the “HUA2_MTX2 (frequency normalized to the reference condition)” value in assay [1] (Abp1 SH3 DMS, Abp1-Hua2 DHFR-PCA, MTX2, frequencies normalized to the reference condition) turned out to be 1.853. Besides, in assay [2] (Abp1-Lsb3, frequencies scaled to the synonymous mutation distribution), the “lsb3sc (DMS score)” value was -0.04736. Besides, the “LSB3_MTX2 (frequency normalized to the reference condition)” value in assay [2] (Abp1 SH3 DMS, Abp1-Lsb3 DHFR-PCA, MTX2, frequencies normalized to the reference condition) was found to be 1.453. Moreover, the quadrant result in assay [4] is on record as “Neutral”.

B4: ABP1 S55S (protein, UniProt P15891 2-592, looked up)
Actin-binding protein: ALEPIDYTTHSREIDAEYLKIVRGSDPDTTWLIISPNAKKEYEPESTGSSFHDFLQLFDETKVQYGLARVSPPGSDVEKIIIIGWCPDSAPLKTRASFAANFAAVANNLFKGYHVQVTARDEDDLDENELLMKISNAAGARYSIQTSSKQQGKASTPPVKKSFTPSKSPAPVSKKEPVKTPSPAPAAKISSRVNDNNDDDDWNEPELKERDFDQAPLKPNQSSYKPIGKIDLQKVIAEEKAKEDPRLVQKPTAAGSKIDPSSDIANLKNESKLKRDSEFNSFLGTTKPPSMTESSLKNDDDKVIKGFRNEKSPAQLWAERKAKQNSGNAETKAEAPKPEVPEDEPEGEPDVKDLKSKFEGLAASEKEEEEMENKFAPPPKKSEPTIISPKPFSKPQEPVKAEEAEQPKTDYKKIGNPLPGMHIEADNEEEPEENDDDWDDDEDEAAQPPLPSRNVASGAPVQKEEPEQEEIAPSLPSRNSIPAPKQEEAPEQAPEEEIEEEAEEAAPQLPSRSSAAPPPPPRRATPEKKPKENPWATAEYDYDAAEDNELTFVENDKIINIEFVDDDWWLGELEKDGSKGLFPSNYVSLGN
modifications: synonymous codon change S55S
As to B4, the “hua2sc (frequencies scaled to the synonymous mutation distribution, DMS score)” value in assay [1] (Abp1-Hua2 DHFR-PCA) is reported as -0.05585. The “HUA2_MTX2 (frequencies normalized to the reference condition)” value in assay [1] (Abp1-Hua2 DHFR-PCA, MTX2) amounted to 1.557. In addition, the “lsb3sc (frequencies scaled to the synonymous mutation distribution, DMS score)” value in assay [2] (Abp1-Lsb3 DHFR-PCA) is reported as 0.2461. Further, in assay [2] (Abp1-Lsb3 DHFR-PCA, MTX2), the “LSB3_MTX2 (frequencies normalized to the reference condition)” value was found to be 1.746. Further, in assay [3], the quadrant result is “Neutral”.

B5: ABP1 G57G (protein, UniProt P15891 2-592, looked up)
Actin-binding protein: ALEPIDYTTHSREIDAEYLKIVRGSDPDTTWLIISPNAKKEYEPESTGSSFHDFLQLFDETKVQYGLARVSPPGSDVEKIIIIGWCPDSAPLKTRASFAANFAAVANNLFKGYHVQVTARDEDDLDENELLMKISNAAGARYSIQTSSKQQGKASTPPVKKSFTPSKSPAPVSKKEPVKTPSPAPAAKISSRVNDNNDDDDWNEPELKERDFDQAPLKPNQSSYKPIGKIDLQKVIAEEKAKEDPRLVQKPTAAGSKIDPSSDIANLKNESKLKRDSEFNSFLGTTKPPSMTESSLKNDDDKVIKGFRNEKSPAQLWAERKAKQNSGNAETKAEAPKPEVPEDEPEGEPDVKDLKSKFEGLAASEKEEEEMENKFAPPPKKSEPTIISPKPFSKPQEPVKAEEAEQPKTDYKKIGNPLPGMHIEADNEEEPEENDDDWDDDEDEAAQPPLPSRNVASGAPVQKEEPEQEEIAPSLPSRNSIPAPKQEEAPEQAPEEEIEEEAEEAAPQLPSRSSAAPPPPPRRATPEKKPKENPWATAEYDYDAAEDNELTFVENDKIINIEFVDDDWWLGELEKDGSKGLFPSNYVSLGN
modifications: synonymous G57G codon change in SH3 domain
Regarding B5, the “hua2sc (frequencies scaled to the synonymous mutation distribution, DMS score)” value in assay [1] (Abp1-Hua2 DHFR-PCA) was -0.4468. Also, the “HUA2_MTX2 (frequencies normalized to the reference condition)” value in assay [1] (Abp1-Hua2 DHFR-PCA, MTX2) is given as 1.166. Besides, the “lsb3sc (frequencies scaled to the synonymous mutation distribution, DMS score)” value in assay [2] (Abp1-Lsb3 DHFR-PCA) is listed as -0.3559. Also, the “LSB3_MTX2 (frequencies normalized to the reference condition)” value in assay [2] (Abp1-Lsb3 DHFR-PCA, MTX2) was 1.1444. Also, in assay [3], the quadrant result was “Neutral”.
